Results taken from patent US20180021429A1 (PHARMA FOODS INTERNATIONAL, published 2018).
Substitutions are numbered along the chain they refer to.

B1: anti-FSTL1 antibody clone #8-7 (chicken-mouse chimeric antibody) (antibody, mouse IgG1, kappa, V domains shown)
VH: AVTLDESGGGLQTPGGGLSLVCKGSGFTFSSFNMFWVRQAPGKGLEWVAGIGKDGVPKYGAAVDGRATISKDNGQSTLRLQLNNLRAEDTGTYFCAKAAGGCSYDWCGIYAGDIDTWGHGTEVIVSS
VL: ASTQPSSVSANPGEAVKITCSGGSGSYYGWYQQKSPGSAPVTVIYNNNQRPSDIPSRFSGSKSGSTATLTITGVQAEDEAVYFCGGYDSSTGHGGIFGAGTTLTVLG
B2: anti-FSTL1 antibody clone #5-3 (chicken-mouse chimeric antibody) (antibody, mouse IgG1, kappa, V domains shown)
VH: B1 VH with G17A, T28S, L78M
VL: ASTQPSSVSANPGETVKITCSGGSGYYYGWYQQKSPGSVPVTVIYNNNNRPSDIPSRFSGSKSGSTGTLTITGVRAEDEAVYYCGGYDNSGTGIFGAGTTLTVLG
B3: anti-FSTL1 antibody clone #5-2 (chicken-mouse chimeric antibody) (antibody, mouse IgG1, kappa, V domains shown)
VH: B1 VH with I51V, V56G, P57T, K58G, F94Y, D105G, I109S, A111V, T116A
VL: B1 VL
B4: anti-FSTL1 antibody clone #8-1 (chicken-mouse chimeric antibody) (antibody, mouse IgG1, kappa, V domains shown)
VH: B1 VH with G17A, L78M
VL: B1 VL with T91S
B5: anti-FSTL1 antibody clone #8-8 (chicken-mouse chimeric antibody) (antibody, mouse IgG1, kappa, V domains shown)
VH: B1 VH with G17A, L78M, F94Y, D105G, I109A, A111T
VL: B1 VL with A76V
B6: anti-FSTL1 antibody clone #5-43 (chicken-mouse chimeric antibody) (antibody, mouse IgG1, kappa, V domains shown)
VH: B1 VH with V56G, P57T, K58G, N73S, F94Y, I109A, A111T
VL: B1 VL
B7: anti-FSTL1 antibody clone #5-8 (chicken-mouse chimeric antibody) (antibody, mouse IgG1, kappa, V domains shown)
VH: B1 VH with A61T, L78M, A111T
VL: B1 VL
B8: anti-FSTL1 antibody clone #13 (chicken-mouse chimeric antibody) (antibody, mouse IgG1, kappa, V domains shown)
VH: AVTLDESGGGLQTPGGGLSLVCKASGFTFSSVTMQWVRQAPGKGLEWVASICSGSSTYYGPAVKGRATISRDNGQNTVRLQLNNLRAEDTATYYCAKIVGRGRWSCTSAAYNIDAWGHGTEVIVSS
VL: ASTQPSSVSANPGETVKITCSGGGNNYGWYQQKSPGSAPVTVIYNNNNRPSNIPSRFSGSKSGSTNTLTITGVQAEDEAVYYCGSYDSSSDSGIFGAGTTLTVLG
B9: anti-FSTL1 antibody clone #6-55 (chicken-mouse chimeric antibody) (antibody, mouse IgG1, kappa, V domains shown)
VH: AVTLDESGGGLQTPGGALSLVCKGSGFTFTSVTMQWVRQAPGKGLEWVASVCSGSSTYYAPAVKGRATISRDNGQSTVRLQLSNLRPEDTGTYYCAKIAGRARWSCTSAAYNIDAWGHGTEVIVSS
VL: ASTQPSSVSAIPGETVKITCSGGGNNYGWYQQRSPGSAPVTVIYYNDNRPSNIPSRFSGSTSGSTSTLTITGVQADDEAIYYCGSWDSNTDSGIFGAGTTLTVLG
notes: also called Anti-FSTL1 mAb (#6-55)
B10: anti-FSTL1 antibody clone #5-10 (chicken-mouse chimeric antibody) (antibody, mouse IgG1, V domains shown)
VH: AVTLDESGGGLQTPGGGLSLVCKGSGFTLSSFNMFWVRQAPGKGLEWVAGVGKDGGTTYGAAVDGRATISRDSGQSTVRLQLNDLRAEDTGTYFCAKAAGGCSYSWCGAYVGDLDAWGHGTEVIVSS
VL: ASTQPSSVSANPGETVKITCSGGGSYVGSYYYGWYQQKSPGSAPVTVIYNNNQRPSDIPSRFSGSKSGSTATLTITGVQAEDEAVYFCGGYDSSAGGIFGAGTTLTVLG
B11: anti-FSTL1 antibody clone #33 (chicken-mouse chimeric antibody) (antibody, mouse IgG1, kappa, V domains shown)
VH: AVTLDESGGGLQTPGGGLSLVCKASGFTFSSFNMNWVRQAPGKGLEYVAEISGTGSSTYYGSAVKGRATISRDNGQSTVRLQLNNLRAEDTATYFCARGDGAYSIDAWGHGTEVIVSS
VL: ASTQPSSVSANPGETVEITCSGDSSYYGWFQQKSPGSAPVTVIYDNTNRPSDIPSRFSGSKSGSTATLTITGVRAEDEAVYYCGGYDSSTYDGIFGAGTTLTVLG
B12: humanized #6-55 antibody H(3)-L(1) (IgG1 type) (antibody, V domains shown)
VH: EVQLLESGGGLVQPGGSLRLSCAASGFTFSSVTMQWVRQAPGKGLEFVASVCSGSSTYYAPAVKGRVTISRDNSKNTVYLQMNSLRAEDTAVYYCAKIAGRARWSCTSAAYNIDAWGQGTLVTVSS
VL: SYELTQPPSVSVSPGQTARITCSGGGNNYGWYQQKPGQAPVTVIYYNDNRPSGIPERFSGSNSGSTTTLTISGVQAEDEADYYCGSWDSNTDSGIFGGGTKLTVLG
notes: Human IgG1 constant region; expressed in HEK293; also called h#6-55 H(3)-L(1)

The binders below were run against T1, human FSTL1 (construct not stated) (human, UniProt Q12841 21-308) (assay: SPR (Biacore T-200), captured antibody, human FSTL1 10 µg/ml; as to Dissociation amount (RU): time not given here).
T1 construct: also called human FSTL1 antigen; FSTL1 (R&D Systems, Inc. Cat#1694-FN-050)
T1 sequence: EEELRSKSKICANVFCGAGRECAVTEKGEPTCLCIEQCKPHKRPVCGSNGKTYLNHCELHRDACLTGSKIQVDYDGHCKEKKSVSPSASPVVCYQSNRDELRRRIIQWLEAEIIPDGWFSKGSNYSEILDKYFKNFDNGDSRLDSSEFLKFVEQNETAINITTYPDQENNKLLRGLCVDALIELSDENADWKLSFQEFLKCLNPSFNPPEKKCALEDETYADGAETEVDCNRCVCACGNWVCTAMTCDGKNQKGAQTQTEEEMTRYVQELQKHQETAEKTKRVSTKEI
Experimental: (§1) The mouse chimeric antibodies were immobilized onto Sensor Chip CM5 (GE Healthcare Japan Corp., BR-1005-30) using Mouse Antibody Capture Kit (GE Healthcare Japan Corp., BR-1008-38), and their affinity for human FSTL1 was calculated using Biacore T-200 (GE Healthcare Japan Corp.).

| Binder | Binding amount (RU) | Dissociation amount (RU) |
| --- | --- | --- |
| B1 | 12.8 RU | 11.8 RU |
| B2 | 11 RU | 8.8 RU |
| B3 | 9.2 RU | 7.1 RU |
| B4 | 11.1 RU | 12.3 RU |
| B5 | 8 RU | 4.7 RU |
| B6 | 7 RU | 3.1 RU |
| B7 | 6.7 RU | 3.4 RU |
| B8 | 8.7 RU | 0.2 RU |
| B9 | 11 RU | 1.5 RU |
| B10 | 9.8 RU | 12.1 RU |
| B11 | 10.9 RU | 4.1 RU |

Each binder was assayed against T1, human FSTL1 (construct not stated) (assay: SPR (Biacore T-200), antibody on Human Antibody Capture Kit, human FSTL1 0 to 20 µg/ml).
Experimental: (§2) Nine IgG1-type humanized antibodies of #6-55 were immobilized onto Sensor Chip CM5 (GE Healthcare Japan Corp., BR-1005-30) using Human Antibody Capture Kit (GE Healthcare Japan Corp., BR-1008-38), and their affinity for human FSTL1 was calculated using Biacore T-200 (GE Healthcare Japan Corp.). […] Among the 9 IgG1-type humanized antibodies of #6-55, a clone composed of a combination “H(2)-L(1)” having a […] KD value was selected as a lead antibody.

| Binder | Kd |
| --- | --- |
| B12 | 26.7 nM |

Target: T1, human FSTL1 (construct not stated)
Assay: SPR (Biacore T-200), captured antibody, human FSTL1 10 µg/ml
Remark: another data set of the same source
Experimental: as §1
(§3) First, the exhaustive activity comparison of the obtained antibodies was conducted with the human FSTL1 concentration fixed to 10 μg/ml (Table 33-1, FIG. 28).

| Binder | Binding amount (RU) | Dissociation amount (RU) |
| --- | --- | --- |
| B1 | 12.8 RU | 11.8 RU |
| B2 | 11 RU | 8.8 RU |
| B3 | 9.2 RU | 7.1 RU |
| B4 | 11.1 RU | 12.3 RU |
| B5 | 8 RU | 4.7 RU |
| B6 | 7 RU | 3.1 RU |
| B7 | 6.7 RU | 3.4 RU |
| B8 | 8.7 RU | 0.2 RU |
| B9 | 11 RU | 1.5 RU |
| B10 | 9.8 RU | 12.1 RU |
| B11 | 10.9 RU | 4.1 RU |

Target: T1, human FSTL1 (construct not stated)
Assay: as above
Remark: another data set of the same source
Experimental: as §1, §3

| Binder | Binding amount (RU) | Dissociation amount (RU) |
| --- | --- | --- |
| B1 | 12.8 RU | 11.8 RU |
| B2 | 11 RU | 8.8 RU |
| B3 | 9.2 RU | 7.1 RU |
| B4 | 11.1 RU | 12.3 RU |
| B5 | 8 RU | 4.7 RU |
| B6 | 7 RU | 3.1 RU |
| B7 | 6.7 RU | 3.4 RU |
| B8 | 8.7 RU | 0.2 RU |
| B9 | 11 RU | 1.5 RU |
| B10 | 9.8 RU | 12.1 RU |
| B11 | 10.9 RU | 4.1 RU |

Target: T1, human FSTL1 (construct not stated)
Assay: as above
Remark: another data set of the same source
Experimental: as §1, §3

| Binder | Binding amount (RU) | Dissociation amount (RU) |
| --- | --- | --- |
| B1 | 12.8 RU | 11.8 RU |
| B2 | 11 RU | 8.8 RU |
| B3 | 9.2 RU | 7.1 RU |
| B4 | 11.1 RU | 12.3 RU |
| B5 | 8 RU | 4.7 RU |
| B6 | 7 RU | 3.1 RU |
| B7 | 6.7 RU | 3.4 RU |
| B8 | 8.7 RU | 0.2 RU |
| B9 | 11 RU | 1.5 RU |
| B10 | 9.8 RU | 12.1 RU |
| B11 | 10.9 RU | 4.1 RU |

The binders below were run against T2, His-tagged mouse FSTL1 (amino acid sequence of mouse FSTL1 used in Examples, SEQ ID NO: 72) (mouse, UniProt Q62356 19-306) (assay: ELISA, mouse FSTL1 coated (FIG. 3B)).
T2 sequence: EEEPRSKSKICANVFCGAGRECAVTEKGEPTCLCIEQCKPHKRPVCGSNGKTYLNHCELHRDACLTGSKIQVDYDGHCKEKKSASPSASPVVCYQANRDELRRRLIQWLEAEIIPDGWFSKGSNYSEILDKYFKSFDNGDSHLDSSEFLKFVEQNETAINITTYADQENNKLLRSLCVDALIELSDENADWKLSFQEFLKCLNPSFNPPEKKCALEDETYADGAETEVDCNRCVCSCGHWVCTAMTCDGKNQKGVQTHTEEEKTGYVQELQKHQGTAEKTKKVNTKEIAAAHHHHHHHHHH

| Binder | binding result |
| --- | --- |
| B4 | binds |
| B7 | no binding (tested: antibody diluted from 100 ng/ml) |
| B8 | binds |
| B9 | binds |
| B11 | binds |

Target: T1, human FSTL1 (construct not stated)
Assay: SPR (Biacore T-200), antibody on Human Antibody Capture Kit, human FSTL1 0 to 20 µg/ml
Remark: another data set of the same source
Experimental: as §2

| Binder | Kd |
| --- | --- |
| B12 | 26.7 nM |
